The record followed here is publication doi:10.1101/2021.02.23.432414.

The target in experiment [1] is fluorescently labelled double-cysteine variant of outer membrane protein X (OmpX_(1,149)), unfolded (UniProt P0A917). In words: single-molecule FRET.
The target is the same in experiment [2]. In words: single-molecule FRET. This is another data set of the same source.

Read-outs that look alike come from different tables or passages of the source.

Sequence of UniProt P0A917 (P0A917 24-171, change not shown): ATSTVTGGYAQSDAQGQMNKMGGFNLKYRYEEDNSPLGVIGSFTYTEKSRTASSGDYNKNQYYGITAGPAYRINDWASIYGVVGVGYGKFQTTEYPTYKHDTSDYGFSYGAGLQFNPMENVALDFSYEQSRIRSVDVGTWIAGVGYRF

In the case of “survival factor A (SurA) (from UniProt P0ABZ6 21-428) (natural protein)”, in experiment [1], the c1/2 amounted to 407 nM, the dH is -31.5 kcal/mol and the percent of uOmpX bound at ~6 uM SurA was 87%.

B1: seventeen-kilodalton protein (Skp), trimer (natural protein)
chain: ADKIAIVNMGSLFQQVAQKTGVSNTLENEFKGRASELQRMETDLQAKMKKLQSMKAGSDRTKLEKDVMAQRQTFAQKAQAFEQDRARRSNEERGKLVTRIQTAVKSVANSQDIDLVVDANAVAYNSSDVKDITADVLKQVK
As for B1, in experiment [2], the c1/2 was found to be 359 nM, the dH is -71.2 kcal/mol and the percent of uOmpX bound at 2.5 uM Skp3 came to 80%.
